± gives the standard deviation of the averaged measurements.
Test system: ATP
Experiment: switch fluorescence ratio, 500 uM ATP over buffer (Cy3 cluster intensity, sum of 5 cycles each) (fold (ratio)); higher = stronger signal-on switching upon ATP binding; sequences stand for … in TCGTCGGCAGCGTCAGATGTGTATAAGAGACAGTTTTTTTTTTTTTTTTTTTTTTTTT…TC
Conditions: aptamer strand: ATP DNA aptamer (quencher-CACCTGGGGGAGTATTGCGGAGGAAGG + anchor), 100 nM annealed; ATP concentration: 500 uM
Procedure, shortened: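 The quencher-labelled ATP aptamer, at 100 nM, was annealed to Cy3-labelled switching-strand clusters on a modified Illumina MiSeq flow-cell. The clusters were imaged in selection buffer, then after 15 min with 500 uM ATP at 22 °C, and this buffer/ATP cycle ran five times with NaOH stripping and re-annealing between runs. Per-cluster fluorescence ratios, summed target-cycle over summed buffer-cycle Cy3 intensity, were averaged per switch-domain sequence. Clusters outside 100-1000 RFU were excluded.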
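Also: ATP exposure 15 min at 22 °C before imaging.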

Sequence	switch fluorescence ratio
CGAATGGGGT	0.985 ± 0.039
GCTATAAGCC	1.05 ± 0.039
GCGGCACGGC	1.01 ± 0.03
TTTGAGATCT	0.989 ± 0.027
CTTGAGGGGT	0.971 ± 0.0099
ATTGTAAGAT	0.994 ± 0.027
TGTTGGTTGT	0.9935 ± 0.0067
CCGATACGGG	1.072 ± 0.0082
CTGTAATCGT	0.9595 ± 0.0086
GTGATTTTCT	0.998 ± 0.015
GGTCTAATCT	1.04 ± 0.015
TAAAAGGGTG	0.977 ± 0.033
TCCCCAGGGG	1.1 ± 0.11
TCTTGGATGT	1.0101 ± 5.3e-05
ATTGAAGGGT	0.981 ± 0.034
TTTTTGCATA	1.25 ± 0.26
CACTGTCTGT	0.98 ± 0.028
GGTGATAGCT	0.987 ± 0.076
CCAACAGGCC	1.14 ± 0.12
CGAAATTGTG	1.02 ± 0.022
TCTTGTATGG	0.9906 ± 0.006
TGCTAACTTT	0.999 ± 0.052
ATCCCTTCCA	1.24 ± 0.087
AAAGGTGTAT	1.02 ± 0.014
AAGGGATTTT	0.999 ± 0.062

Sequence	switch fluorescence ratio
AAGGAATACA	1.07 ± 0.041
GCAGCCCCTG	1.02 ± 0.048
TTATCTTTGT	0.9758 ± 0.007
AAATTAATTT	1.02 ± 0.043
TCTAAATGGG	1.029 ± 0.005
TGTTGTTTAC	1.0216 ± 0.00012
ACAATATTTT	1.02 ± 0.02
AGTTTTTTTA	0.981 ± 0.018
AAGCGGTCCG	1.02 ± 0.025
GGAAGGGGAT	0.9986 ± 0.0061
ATGTGAGATA	1.02 ± 0.015
CAAATAAGTT	1.02 ± 0.029
ACAGCTAGTA	0.986 ± 0.019
GGATTAGCTG	1.01 ± 0.049
TGCAGACAGA	1.02 ± 0.055
CTGTCTGGTG	1.025 ± 0.0087
AAGGTCGCTG	0.9861 ± 0.00072
AGGCGGCGAG	1 ± 0.024
TCCCGCGGCG	1.08 ± 0.041
TGTATGTGGT	1 ± 0.048
GGCTGGCCAT	1.01 ± 0.025
TTATGCATGA	1 ± 0.047
TTTTTTACTT	1.03 ± 0.054
GTAACGTAAG	1.03 ± 0.034
GGCGAGAGGG	0.979 ± 0.042

Sequence	switch fluorescence ratio
CTGGCATTTT	0.9936 ± 0.0054
GGGATCTGCG	0.95 ± 0.017
TAGCCGGCGT	1.01 ± 0.013
GGGAAACTGA	1.04 ± 0.0027
GAGTATGTGC	0.9691 ± 0.0066
TCTCGTACAG	0.982 ± 0.024
AGAACACAGT	1.006 ± 0.0014
GAGGATCTGT	0.961 ± 0.023
GGAGTGTGTG	0.96 ± 0.044
TGTGTGAAGT	1.01 ± 0.059
GCAAAGGGCG	1.03 ± 0.034
GTGTTTGTGT	0.983 ± 0.028
AGAGTGATCT	0.98437 ± 0.00057
CGTTTATAGG	1.015 ± 0.009
TGGCTCAGTG	1.024 ± 0.0018
GATCATTTTT	0.984 ± 0.021
TCATGTAGGG	0.989 ± 0.015
GGGGAAAGGG	1 ± 0.034
TTCATGCTTT	0.9882 ± 0.0097
CTCAGGGTTT	1.04 ± 0.023
GATTGGGAGG	1.03 ± 0.034
AATAGAGGGA	0.977 ± 0.045
ATGGTTTGGC	1 ± 0.049
TTCAGGGGTG	1.1 ± 0.033
GGGATTAGCG	0.957 ± 0.037

Sequence	switch fluorescence ratio
GTGAGGGTGG	0.9695 ± 0.0093
GGAAACAGTT	1 ± 0.032
CGGGATGCCC	1.01 ± 0.047
TTAAGCCTG	1.012 ± 0.0021
AATGCTTGAG	1.05 ± 0.08
TTTCGGGATG	1.01 ± 0.066
AGTCAATTGC	1 ± 0.033
TTATTTATTG	0.99 ± 0.016
AAGAGAAGTT	0.9938 ± 0.0088
GCTGGGCACA	0.967 ± 0.03
TGCTGTGGGG	1 ± 0.029
GAAGTACAGC	1.26 ± 0.031
TAATTCTGGT	0.965 ± 0.025
GTTGCTGTCA	1.06 ± 0.043
TTTTTTACAG	1.02 ± 0.011
TAATGTTATG	1.03 ± 0.017
GCGAGTCATT	0.9845 ± 0.007
TTTTTAGATA	0.973 ± 0.038
GATAGCCTGT	1.01 ± 0.027
TCGCATTCGT	1.25 ± 0.026
GGATGGATGA	1.07 ± 0.073
CGTTTGTGAT	0.9993 ± 0.0076
ATAGGTTAGA	1.06 ± 0.14
CATTTATTAG	0.964 ± 0.0063
TTTTGGTGCT	1.01 ± 0.03

Sequence	switch fluorescence ratio
ATTCTACTTA	1.01 ± 0.018
GACTTGGTGT	1.047 ± 0.0092
CGTAACTTGG	1.01 ± 0.029
GAATGGTTTC	0.9947 ± 0.0053
AGGTTGTTAT	0.969 ± 0.013
AAAATGCGAT	1.01 ± 0.045
AGAGTATGG	0.965 ± 0.035
AGTAGGGCGA	1 ± 0.092
GAATGTGGGC	0.955 ± 0.028
CGTATGAAAT	0.9985 ± 0.0089
CGCATGTCTT	1.07 ± 0.0029
TGGTTTCCCG	0.975 ± 0.044
GGGGTTGTTT	1.03 ± 0.08
TTCTGGGAAA	0.9997 ± 0.0057
TATGAGTGAC	1.02 ± 0.016
TAGATTTGAT	0.9664 ± 0.0028
TTGCCGCTTG	1.21 ± 0.33
CTTGAAGGTG	1.595 ± 0.015
GCCGGGGAGC	1.02 ± 0.045
ACTATTCGCT	1.02 ± 0.01
GAGAGCAGGG	0.995 ± 0.026
TGACTGCGGG	1.01 ± 0.015
TATTGGTAAA	0.997 ± 0.036
TTGTTGCGGA	0.997 ± 0.011
ATGTAGAGGG	1.01 ± 0.02

Sequence	switch fluorescence ratio
GTTAGGGTTT	0.996 ± 0.024
ATTTATCGCA	1.011 ± 0.0041
GTTTGCGTAT	1.02 ± 0.048
AAAACGTAAC	1.25 ± 0.1
CTTCACATCG	1.03 ± 0.041
AGTTCTGTTT	0.994 ± 0.047
GCATCGAGGC	1.01 ± 0.14
GGATGGGTTG	1.09 ± 0.19
CCGTAGGAAT	1.28 ± 0.068
CGGTGACGGG	0.959 ± 0.014
TTCTTTCCGT	1.06 ± 0.026
GAGTACGTTA	1.16 ± 0.013
CTCGTGAACT	1.048 ± 0.0022
GTAATATGTG	0.991 ± 0.013
GTTCGCGGGG	1.06 ± 0.12
TTAAGAATTG	1.04 ± 0.12
CCAGTATTTT	0.999 ± 0.015
TAAGGGTTTG	0.977 ± 0.036
TCTTTCGGAG	1.33 ± 0.077
TTATTATGGC	0.993 ± 0.05
TATGAGGGGA	1.02 ± 0.032
CGGGGTGGGG	0.993 ± 0.056
CCACTTAGGG	1.01 ± 0.021
TGGGGGGGTC	0.988 ± 0.048
AGGGGTGAGC	1.02 ± 0.072

Sequence	switch fluorescence ratio
TAAAATTGAT	0.9818 ± 0.0038
AGGGAAAAAA	1.01 ± 0.043
AGTTGTTGTT	0.981 ± 0.022
TTTTGTTATT	1.03 ± 0.068
GGTTTCAGTG	1.01 ± 0.025
ACTCAATTAG	1.025 ± 0.01
CTTTACCTAC	1.327 ± 0.0078
CAGGGATGCT	1.02 ± 0.035
TAGTCCGGGC	1 ± 0.076
TGTTGATAGT	1 ± 0.023
CGGGGTCATT	0.979 ± 0.011
CAAATTCTGT	1.009 ± 0.009
GGCAGAGGAG	1.01 ± 0.0063
AAATGTGGCG	1.03 ± 0.011
CAAAGGATGA	0.988 ± 0.002
TTGTGGGTCC	1.013 ± 0.0093
TTTACGGATG	1.044 ± 0.0036
TGGGATAGTT	1.024 ± 0.0069
ATGTGGTAGC	0.9523 ± 0.004
CGCTTCGGGG	0.9735 ± 0.0082
TGATTTAGGA	1.01 ± 0.036
GTCTAAAATC	0.978 ± 0.038
TTCCACGAAG	0.996 ± 0.012
GGGAGTATGT	0.977 ± 0.054
GACACTGGTA	1 ± 0.027

Sequence	switch fluorescence ratio
TGGTTACGTC	0.985 ± 0.026
TCCTAAATGT	0.976 ± 0.048
CGTGTTGGTC	1 ± 0.012
GGGCTTGTGC	0.987 ± 0.071
AAAGTCATCT	0.995 ± 0.023
AGCGACGGGA	1.1 ± 0.048
CGGGTTGTAG	1 ± 0.036
TTGAAGGGGG	0.993 ± 0.035
AGTTTATTTT	0.986 ± 0.034
CTTGGGGGAT	0.979 ± 0.038
GGCTAAGGAT	1 ± 0.018
CGGCCTGGCG	0.969 ± 0.016
ATATCAGACT	0.99 ± 0.015
AGAATGGTCG	1.03 ± 0.03
GGTGTACGGG	0.987 ± 0.036
AGTTTGTGTG	0.977 ± 0.014
TATTGGAACG	0.99979 ± 0.0003
AAACCACCCA	1.1 ± 0.019
CCGAAGGGTT	1.02 ± 0.077
AGAGTTAAGT	0.989 ± 0.032
ACGTGCACGA	1.01 ± 0.015
TTGAACGGGG	0.9933 ± 0.0035
TTAGAGGGAG	1.03 ± 0.042
TATCCTGGAC	1.05 ± 0.045
TGGGTCTAAG	0.9669 ± 0.0093
